Experimental data as given in patent publication US20090175786A1 (published 2009).
Where two headings read alike, the source gives them in different places. Where no end group is shown, it is not given here. [ ]: non-standard residue; d: D form. The star is where a group is joined. DOTA = O=C(O)CN1CCN(CC(=O)O)CCN(CC(=O)*)CCN(CC(=O)O)CC1; 4Abz = Nc1ccc(C(=O)O)cc1; Dap = NC[C@H](N)C(=O)O; AEEA = NCCOCCOCC(=O)O; Me2Gly = CN(C)CC(=O)*; Acm = CC(=O)NC*

What was measured:
[1] = target: T1, gastrin releasing peptide receptor (GRP-R), human (human, UniProt P30550 1-384); assay: 125I-BBN competition, PC3 cells
T1 construct: whole, on cells; also called GRP receptor; GRP-preferring receptor
T1 sequence (P30550 whole entry): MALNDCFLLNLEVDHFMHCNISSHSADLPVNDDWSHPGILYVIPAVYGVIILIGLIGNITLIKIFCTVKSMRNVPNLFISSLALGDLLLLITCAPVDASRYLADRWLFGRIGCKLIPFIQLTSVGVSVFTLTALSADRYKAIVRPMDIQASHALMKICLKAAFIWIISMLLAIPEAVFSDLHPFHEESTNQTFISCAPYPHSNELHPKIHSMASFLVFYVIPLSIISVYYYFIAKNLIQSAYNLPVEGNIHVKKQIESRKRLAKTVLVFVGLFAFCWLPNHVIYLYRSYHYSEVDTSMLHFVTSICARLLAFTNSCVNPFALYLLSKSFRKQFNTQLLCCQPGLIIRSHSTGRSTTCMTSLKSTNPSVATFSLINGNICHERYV
Experimental: (§1) All compounds tested were dissolved in binding buffer and appropriate dilutions were also done in binding buffer. PC3 cells for assay were seeded at a concentration of 2.0×10⁴/well either in 96-well black/clear collagen I cellware plates (Beckton Dickinson Biocoat). Plates were used for binding studies on day 2 post-plating. The plates were checked for confluency (>90% confluent) prior to assay. […] The studies were conducted with an assay volume of 75 μL per well. Triplicate wells were used for each data point. After the addition of the appropriate solutions, plates were incubated for 1 hour at 4° C. Incubation was ended by the addition of 200 μL of ice-cold incubation buffer. Plates were washed 5 times and blotted dry. Radioactivity was detected using either a LKB CompuGamma counter or a microplate scintillation counter.

[2] = target: T1, gastrin releasing peptide receptor …; assay: 125I-BBN competition, PC3 cells; remark: listed apart in the source
Experimental: as §1

[3] = target: T1, gastrin releasing peptide receptor …; assay: 125I-BBN competition, PC3 cells; remark: listed apart in the source
[4] = target: T2, neuromedin-B preferring receptor (NMB-R) of C6 rodent glioblastoma cells (rodent, UniProt P24053 1-390, limits assumed); assay: 125I-NMB competition, C6 cells
T2 construct: whole, on cells; also called C6/NMB-R
T2 sequence (looked up): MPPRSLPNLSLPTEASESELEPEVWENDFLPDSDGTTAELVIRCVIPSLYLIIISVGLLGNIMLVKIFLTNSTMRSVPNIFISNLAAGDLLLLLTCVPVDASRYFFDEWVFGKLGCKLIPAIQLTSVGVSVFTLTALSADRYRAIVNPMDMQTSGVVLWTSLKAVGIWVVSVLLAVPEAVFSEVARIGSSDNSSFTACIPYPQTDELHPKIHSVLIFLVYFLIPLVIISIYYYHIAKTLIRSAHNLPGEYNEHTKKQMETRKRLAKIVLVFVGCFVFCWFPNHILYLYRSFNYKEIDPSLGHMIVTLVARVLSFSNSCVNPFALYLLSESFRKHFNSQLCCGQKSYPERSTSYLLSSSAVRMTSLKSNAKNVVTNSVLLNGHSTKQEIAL
Experimental: The binding parameters obtained from the studies were analyzed using a one-site competition non-linear regression analysis with GraphPad Prism.

[5] = target: T1, gastrin releasing peptide receptor …; assay: 125I-BBN competition, PC3 cells; remark: listed apart in the source
[6] = target: T2, neuromedin-B preferring receptor …; assay: 125I-NMB competition, C6 cells; remark: listed apart in the source
[7] = target: T1, gastrin releasing peptide receptor …; assay: displacement of 125I-universal ligand, human tumour sections
[8] = target: T3, bombesin receptor subtype 3 (BB3-R), human (human, UniProt P32247 1-399); assay: receptor autoradiography on human tumour sections
T3 construct: whole, on cells; tissue sections, receptor autoradiography
T3 sequence (looked up): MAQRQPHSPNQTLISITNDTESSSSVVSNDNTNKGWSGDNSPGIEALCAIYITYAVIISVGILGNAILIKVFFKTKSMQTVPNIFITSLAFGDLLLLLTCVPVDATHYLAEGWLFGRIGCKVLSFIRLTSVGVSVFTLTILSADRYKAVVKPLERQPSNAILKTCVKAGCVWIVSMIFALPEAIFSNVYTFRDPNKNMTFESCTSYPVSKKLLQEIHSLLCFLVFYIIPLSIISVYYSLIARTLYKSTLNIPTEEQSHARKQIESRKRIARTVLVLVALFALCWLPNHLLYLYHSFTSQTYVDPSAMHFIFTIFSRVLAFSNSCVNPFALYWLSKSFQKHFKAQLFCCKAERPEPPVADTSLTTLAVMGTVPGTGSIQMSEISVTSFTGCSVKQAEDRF
Text: Human ileal carcinoid tissue was used as a source for NMB-R, human prostate carcinoma for GRP-R and human bronchial carcinoid for BB3-R subtype receptors.

B1: DO3A-monoamide-G-Abz4-QWAGHFL-NH2 (peptide)
peptide: {DOTA}-G[4Abz]QWAGHFL-NH2
SMILES: CC(C)C[C@H](NC(=O)[C@H](Cc1ccccc1)NC(=O)[C@H](Cc1c[nH]cn1)NC(=O)CNC(=O)[C@H](C)NC(=O)[C@H](Cc1c[nH]c2ccccc12)NC(=O)[C@H](CCC(N)=O)NC(=O)c1ccc(NC(=O)CNC(=O)CN2CCN(CC(=O)O)CCN(CC(=O)O)CCN(CC(=O)O)CC2)cc1)C(N)=O
notes: also called L224
Question: What does the source list for B1?
Answer: IC50 [1]: > 500 nM; IC50 [2]: > 500 nM

B2: N,N-dimethylglycine-Ser-Cys(Acm)-Gly-SS-QWAVGHLM-NH2 (peptide)
peptide: [Me2Gly]SC(Acm)GSSQWAVGHLM-NH2
SMILES: CSCC[C@H](NC(=O)[C@H](CC(C)C)NC(=O)[C@H](Cc1c[nH]cn1)NC(=O)CNC(=O)[C@@H](NC(=O)[C@H](C)NC(=O)[C@H](Cc1c[nH]c2ccccc12)NC(=O)[C@H](CCC(N)=O)NC(=O)[C@H](CO)NC(=O)[C@H](CO)NC(=O)CNC(=O)[C@H](CSCNC(C)=O)NC(=O)[C@H](CO)NC(=O)CN(C)C)C(C)C)C(N)=O
Question: How did the IC50 [3] turn out when B2 was run?
Answer: Its IC50 is 10 nM.

B3: N,N-dimethylglycine-Ser-Cys(Acm)-Gly-KE-QWAVGHLM-NH2 (peptide)
peptide: [Me2Gly]SC(Acm)GKEQWAVGHLM-NH2
SMILES: CSCC[C@H](NC(=O)[C@H](CC(C)C)NC(=O)[C@H](Cc1c[nH]cn1)NC(=O)CNC(=O)[C@@H](NC(=O)[C@H](C)NC(=O)[C@H](Cc1c[nH]c2ccccc12)NC(=O)[C@H](CCC(N)=O)NC(=O)[C@H](CCC(=O)O)NC(=O)[C@H](CCCCN)NC(=O)CNC(=O)[C@H](CSCNC(C)=O)NC(=O)[C@H](CO)NC(=O)CN(C)C)C(C)C)C(N)=O
Question: With B3 as the binder, how does the IC50 [4] read?
Answer: The IC50 was 60 nM.

B4: N,N-dimethylglycine-Ser-Cys(Acm)-Gly-SR-QWAVGHLM-NH2 (peptide)
peptide: [Me2Gly]SC(Acm)GSRQWAVGHLM-NH2
SMILES: CSCC[C@H](NC(=O)[C@H](CC(C)C)NC(=O)[C@H](Cc1c[nH]cn1)NC(=O)CNC(=O)[C@@H](NC(=O)[C@H](C)NC(=O)[C@H](Cc1c[nH]c2ccccc12)NC(=O)[C@H](CCC(N)=O)NC(=O)[C@H](CCCNC(=N)N)NC(=O)[C@H](CO)NC(=O)CNC(=O)[C@H](CSCNC(C)=O)NC(=O)[C@H](CO)NC(=O)CN(C)C)C(C)C)C(N)=O
Question: With B4 as the binder, how does the IC50 [4] read?
Answer: The IC50 was 2 nM.

Question: How did the IC50 [3] turn out when [Me2Gly]SC(Acm)GSKQWAVGHLM-NH2 [N,N-dimethylglycine-Ser-Cys(Acm)-Gly-SK-QWAVGHLM-NH2] was run?
Answer: Its IC50 is 2 nM.

B5: N,N-dimethylglycine-Ser-Cys(Acm)-Gly-8-amino-3,6-dioxaoctanoic acid-Arg-Gly-BBN(7-14) (peptide)
peptide: RGQWAVGHLM
modifications: N-terminus: N,N-dimethylglycine-Ser-Cys(Acm)-Gly-8-amino-3,6-dioxaoctanoic acid; C-terminal amide
notes: same M-N-O-P-G as printed for L22, other MS; also called L57
Question: B5 was tested. Which IC50 [5] did it give?
Answer: Its IC50 is 50 nM.

Question: {DOTA}-G[4Abz]LWATGHFM-NH2 (also called L227) [DO3A-monoamide-G-Abz4-LWATGHFM-NH2] was tested. Which IC50 [6] did it give?
Answer: Its IC50 is 0.07 nM.

Question: What about the IC50 [4] of the same binder?
Answer: Its IC50 is 0.8 nM.

B6: N,N-dimethylglycine-Ser-Cys(Acm)-Gly-8-amino-3,6-dioxaoctanoic acid-Arg-BBN(7-14) (peptide)
peptide: RQWAVGHLM
modifications: N-terminus: N,N-dimethylglycine-Ser-Cys(Acm)-Gly-8-amino-3,6-dioxaoctanoic acid; C-terminal amide
notes: also called L9
Question: How did the IC50 [5] turn out when B6 was run?
Answer: The IC50 was 6 nM.

B7: N,N-dimethylglycine-Ser-Cys(Acm)-Gly-N-4-aminoethyl-N-1-piperazineacetic acid-Asp-BBN(7-14) (peptide)
peptide: DQWAVGHLM
modifications: N-terminus: N,N-dimethylglycine-Ser-Cys(Acm)-Gly-N-4-aminoethyl-N-1-piperazineacetic acid; C-terminal amide
notes: also called L27
Question: How did the IC50 [5] turn out when B7 was run?
Answer: The IC50 was > 50 nM.

B8: N,N-dimethylglycine-Ser-Cys(Acm)-Gly-8-amino-3,6-dioxaoctanoic acid-Lys-BBN(7-14) (peptide)
peptide: KQWAVGHLM
modifications: N-terminus: N,N-dimethylglycine-Ser-Cys(Acm)-Gly-8-amino-3,6-dioxaoctanoic acid; C-terminal amide
notes: also called L8
Question: How did the IC50 [5] turn out when B8 was run?
Answer: Its IC50 is 4 nM.

B9: N,N-dimethylglycine-Ser-Cys(Acm)-Gly-N-1-piperazineacetic acid-Asp-BBN(7-14) (peptide)
peptide: DQWAVGHLM
modifications: N-terminus: N,N-dimethylglycine-Ser-Cys(Acm)-Gly-N-1-piperazineacetic acid; C-terminal amide
notes: also called L33
Question: Which IC50 [5] does the source give for B9 here?
Answer: Its IC50 is > 50 nM.

B10: N,N-dimethylglycine-Ser-Cys(Acm)-Gly-8-amino-3,6-dioxaoctanoic acid-Asp-BBN(7-14) (peptide)
peptide: DQWAVGHLM
modifications: N-terminus: N,N-dimethylglycine-Ser-Cys(Acm)-Gly-8-amino-3,6-dioxaoctanoic acid; C-terminal amide
notes: also called L10
Question: How did the IC50 [5] turn out when B10 was run?
Answer: The IC50 was > 50 nM.

B11: N,N-dimethylglycine-Ser-Cys(Acm)-Gly-8-amino-3,6-dioxaoctanoic acid-Glu-BBN(7-14) (peptide)
peptide: EQWAVGHLM
modifications: N-terminus: N,N-dimethylglycine-Ser-Cys(Acm)-Gly-8-amino-3,6-dioxaoctanoic acid; C-terminal amide
notes: also called L13
Question: Which IC50 [5] does the source give for B11 here?
Answer: The IC50 was > 50 nM.

B12: ^175Lu-L70 (peptide)
peptide: QWAVGHLM
modifications: N-terminus: 175Lu complex of DO3A-monoamide-Gly-4-aminobenzoic acid; C-terminal amide
Question: Which IC50 [7] does the source give for B12 here?
Answer: The IC50 was 0.8 nM.

Question: What does the source list for WAVGHLM-NH2 (also called BBN8-14) [WAVGHLM-NH2]?
Answer: IC50 [6]: > 800 nM; IC50 [4]: > 800 nM

B13: N,N-dimethylglycine-Ser-Cys(Acm)-Gly-2,3-diaminopropionic acid-8-amino-3,6-dioxaoctanoic acid-Gly-BBN(7-14) (peptide)
peptide: {Me2Gly-Ser-Cys(Acm)}-G[Dap][AEEA]GQWAVGHLM-NH2
notes: same M-N-O-P-G as printed for L61, other MS; also called L26
Question: With B13 as the binder, how does the IC50 [5] read?
Answer: The IC50 was 30 nM.

B14: ^177Lu-L70 (peptide)
peptide: QWAVGHLM
modifications: N-terminus: 177Lu complex of DO3A-monoamide-Gly-4-aminobenzoic acid; C-terminal amide
notes: also called Lutetium complex of L70
Question: Does B14 bind [8]?
Answer: Result: no binding
